For the assay, the target named is epidermal growth factor receptor (EGFR) (human (endogenous in HeLa)) (UniProt P00533).

With “pIII::EGF fusion displayed on the helper phage M13SW7-EGF (epidermal growth factor, GGGS linker, M13 minor coat protein pIII) (from UniProt P69168 19-424)”, the fold difference in luciferase expression (EGF^+/EGF^−), A549, mini phagemid, +TurboFect, 96 h came out at 9.96 fold; the fold difference in luciferase expression (EGF^+/EGF^−), HeLa, full phagemid, +TurboFect, 96 h is 261 fold; the fold difference in luciferase expression (EGF^+/EGF^−), HeLa, mini phagemid, +TurboFect, 96 h stood at 705 fold; the fold difference in luciferase expression (EGF^+/EGF^−), HeLa, mini phagemid, −TurboFect, 96 h was found to be 25.6 fold. For the same substance, the fold difference in luciferase expression (EGF^+/EGF^−), MRC-5, full phagemid, −TurboFect, 96 h turned out to be 4.14 fold and the fold difference in luciferase expression (EGF^+/EGF^−), MRC-5, mini phagemid, +TurboFect, 96 h came out at 5.73 fold.

Values taken from publication PMC12173652.
